Test results from patent publication US20140087995A1 (published 2014).
Numbered stars: 1 amine (or outer) side, 2 acyl side, 3 side chain; on linkers, the order of the positions; unused ones are H or OH. Bridge positions count the residues as written; N and C are the ends. Side chains are listed from the residue outwards. Ends that are not written are not given here. * marks the point of attachment. C20 diacid = O=C(O)CCCCCCCCCCCCCCCCCCC(=O)*; γGlu = O=C(O)[C@H](CCC(=O)[*:2])N[*:1]; AEEA = NCCOCCOCC(=O)O

T1: rat calcitonin receptor (rat, UniProt P32214 25-516)
T1 construct: whole, on cells; Membranes prepared from transiently transfected BHK tk'ts 13 cells (Assay VIII); also called rCTR; rCT
T1 sequence (looked up): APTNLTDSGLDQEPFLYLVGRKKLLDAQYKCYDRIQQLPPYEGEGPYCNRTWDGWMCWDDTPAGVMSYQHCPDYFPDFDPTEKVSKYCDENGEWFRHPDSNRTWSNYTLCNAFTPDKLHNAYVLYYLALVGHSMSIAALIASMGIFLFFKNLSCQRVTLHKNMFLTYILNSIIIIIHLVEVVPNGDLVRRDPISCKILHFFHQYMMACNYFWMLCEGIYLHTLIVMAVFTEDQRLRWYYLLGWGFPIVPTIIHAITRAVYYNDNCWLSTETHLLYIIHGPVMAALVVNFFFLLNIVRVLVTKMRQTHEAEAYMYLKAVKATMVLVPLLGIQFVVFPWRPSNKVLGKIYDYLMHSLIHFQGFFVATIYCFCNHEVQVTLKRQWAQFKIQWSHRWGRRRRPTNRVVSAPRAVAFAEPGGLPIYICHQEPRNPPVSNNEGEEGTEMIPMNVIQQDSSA

T2: rat amylin receptor (rat calcitonin receptor + rat RAMP 3) (rat, UniProt P32214 25-516; Q9JJ73 23-147)
T2 construct: whole, on cells; Membranes prepared from transiently transfected BHK tk'ts 13 cells (Assay VI); also called rAmylin-R; rAmylin
T2 sequence (looked up) 1: T1 sequence (looked up)
T2 sequence (looked up) 2: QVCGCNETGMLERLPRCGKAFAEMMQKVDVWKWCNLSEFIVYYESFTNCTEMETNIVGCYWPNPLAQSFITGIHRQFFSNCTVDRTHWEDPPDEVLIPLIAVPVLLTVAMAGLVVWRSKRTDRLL

T3: human calcitonin receptor (human, UniProt P30988 25-474)
T3 construct: whole, on cells; Membranes prepared from a stably transfected BHK cell line (Assay VII); also called hCTR; hCT
T3 sequence (looked up): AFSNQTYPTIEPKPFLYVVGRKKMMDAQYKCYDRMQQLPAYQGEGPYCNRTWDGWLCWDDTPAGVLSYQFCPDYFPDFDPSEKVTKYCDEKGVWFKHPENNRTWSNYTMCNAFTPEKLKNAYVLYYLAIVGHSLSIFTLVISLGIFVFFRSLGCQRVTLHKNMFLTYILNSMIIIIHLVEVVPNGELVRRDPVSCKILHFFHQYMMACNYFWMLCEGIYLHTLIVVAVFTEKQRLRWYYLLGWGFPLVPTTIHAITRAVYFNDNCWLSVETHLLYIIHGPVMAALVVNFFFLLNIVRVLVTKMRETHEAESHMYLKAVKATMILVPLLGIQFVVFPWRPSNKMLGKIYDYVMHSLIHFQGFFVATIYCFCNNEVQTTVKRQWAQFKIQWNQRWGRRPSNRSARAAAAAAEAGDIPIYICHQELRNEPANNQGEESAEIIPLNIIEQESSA

B1: N^ε1-[2-[2-[2-[[(4S)-4-carboxy-4-(19-carboxynonadecanoylamino)butanoyl]amino]ethoxy]ethoxy]acetyl]-[Arg17,Pro21,Pro27,Pro29,Pro34]-h-amylin (peptide)
peptide: K([AEEA-γGlu-C20 diacid])CNTATCATQRLANFLRHSSPNFGAIPSPTNVGPNTY-NH2
modifications: disulfide 2-7; N-terminus assumed
SMILES: CC[C@H](C)[C@H](NC(=O)[C@H](C)NC(=O)CNC(=O)[C@H](Cc1ccccc1)NC(=O)[C@H](CC(N)=O)NC(=O)[C@@H]1CCCN1C(=O)[C@H](CO)NC(=O)[C@H](CO)NC(=O)[C@H](Cc1c[nH]cn1)NC(=O)[C@H](CCCNC(=N)N)NC(=O)[C@H](CC(C)C)NC(=O)[C@H](Cc1ccccc1)NC(=O)[C@H](CC(N)=O)NC(=O)[C@H](C)NC(=O)[C@H](CC(C)C)NC(=O)[C@H](CCCNC(=N)N)NC(=O)[C@H](CCC(N)=O)NC(=O)[C@@H](NC(=O)[C@H](C)NC(=O)[C@@H]1CSSC[C@H](NC(=O)[C@@H](N)CCCCNC(=O)COCCOCCNC(=O)CC[C@H](NC(=O)CCCCCCCCCCCCCCCCCCC(=O)O)C(=O)O)C(=O)N[C@@H](CC(N)=O)C(=O)N[C@@H]([C@@H](C)O)C(=O)N[C@@H](C)C(=O)N[C@@H]([C@@H](C)O)C(=O)N1)[C@@H](C)O)C(=O)N1CCC[C@H]1C(=O)N[C@@H](CO)C(=O)N1CCC[C@H]1C(=O)N[C@H](C(=O)N[C@@H](CC(N)=O)C(=O)N[C@H](C(=O)NCC(=O)N1CCC[C@H]1C(=O)N[C@@H](CC(N)=O)C(=O)N[C@H](C(=O)N[C@@H](Cc1ccc(O)cc1)C(N)=O)[C@@H](C)O)C(C)C)[C@@H](C)O
notes: Analogue of human amylin; also called compound 56
B2: N^ε1-[2-[2-[2-[[(4S)-4-carboxy-4-(19-carboxynonadecanoylamino)butanoyl]amino]ethoxy]ethoxy]acetyl]-[His14,Arg17,Pro21,Pro27,Arg34]-h-amylin (peptide)
peptide: K([AEEA-γGlu-C20 diacid])CNTATCATQRLAHFLRHSSPNFGAIPSSTNVGRNTY-NH2
modifications: disulfide 2-7; N-terminus assumed
SMILES: CC[C@H](C)[C@H](NC(=O)[C@H](C)NC(=O)CNC(=O)[C@H](Cc1ccccc1)NC(=O)[C@H](CC(N)=O)NC(=O)[C@@H]1CCCN1C(=O)[C@H](CO)NC(=O)[C@H](CO)NC(=O)[C@H](Cc1c[nH]cn1)NC(=O)[C@H](CCCNC(=N)N)NC(=O)[C@H](CC(C)C)NC(=O)[C@H](Cc1ccccc1)NC(=O)[C@H](Cc1c[nH]cn1)NC(=O)[C@H](C)NC(=O)[C@H](CC(C)C)NC(=O)[C@H](CCCNC(=N)N)NC(=O)[C@H](CCC(N)=O)NC(=O)[C@@H](NC(=O)[C@H](C)NC(=O)[C@@H]1CSSC[C@H](NC(=O)[C@@H](N)CCCCNC(=O)COCCOCCNC(=O)CC[C@H](NC(=O)CCCCCCCCCCCCCCCCCCC(=O)O)C(=O)O)C(=O)N[C@@H](CC(N)=O)C(=O)N[C@@H]([C@@H](C)O)C(=O)N[C@@H](C)C(=O)N[C@@H]([C@@H](C)O)C(=O)N1)[C@@H](C)O)C(=O)N1CCC[C@H]1C(=O)N[C@@H](CO)C(=O)N[C@@H](CO)C(=O)N[C@H](C(=O)N[C@@H](CC(N)=O)C(=O)N[C@H](C(=O)NCC(=O)N[C@@H](CCCNC(=N)N)C(=O)N[C@@H](CC(N)=O)C(=O)N[C@H](C(=O)N[C@@H](Cc1ccc(O)cc1)C(N)=O)[C@@H](C)O)C(C)C)[C@@H](C)O
notes: Analogue of human amylin; also called compound 84
B3: N^ε1-[2-[2-[2-[[(4S)-4-carboxy-4-(19-carboxynonadecanoylamino)butanoyl]amino]ethoxy]ethoxy]acetyl]-[Gly14,Arg17,Pro21,Pro27,Pro31]-h-amylin (peptide)
peptide: K([AEEA-γGlu-C20 diacid])CNTATCATQRLAGFLRHSSPNFGAIPSSTPVGSNTY-NH2
modifications: disulfide 2-7; N-terminus assumed
SMILES: CC[C@H](C)[C@H](NC(=O)[C@H](C)NC(=O)CNC(=O)[C@H](Cc1ccccc1)NC(=O)[C@H](CC(N)=O)NC(=O)[C@@H]1CCCN1C(=O)[C@H](CO)NC(=O)[C@H](CO)NC(=O)[C@H](Cc1c[nH]cn1)NC(=O)[C@H](CCCNC(=N)N)NC(=O)[C@H](CC(C)C)NC(=O)[C@H](Cc1ccccc1)NC(=O)CNC(=O)[C@H](C)NC(=O)[C@H](CC(C)C)NC(=O)[C@H](CCCNC(=N)N)NC(=O)[C@H](CCC(N)=O)NC(=O)[C@@H](NC(=O)[C@H](C)NC(=O)[C@@H]1CSSC[C@H](NC(=O)[C@@H](N)CCCCNC(=O)COCCOCCNC(=O)CC[C@H](NC(=O)CCCCCCCCCCCCCCCCCCC(=O)O)C(=O)O)C(=O)N[C@@H](CC(N)=O)C(=O)N[C@@H]([C@@H](C)O)C(=O)N[C@@H](C)C(=O)N[C@@H]([C@@H](C)O)C(=O)N1)[C@@H](C)O)C(=O)N1CCC[C@H]1C(=O)N[C@@H](CO)C(=O)N[C@@H](CO)C(=O)N[C@H](C(=O)N1CCC[C@H]1C(=O)N[C@H](C(=O)NCC(=O)N[C@@H](CO)C(=O)N[C@@H](CC(N)=O)C(=O)N[C@H](C(=O)N[C@@H](Cc1ccc(O)cc1)C(N)=O)[C@@H](C)O)C(C)C)[C@@H](C)O
notes: Analogue of human amylin; also called compound 71
B4: N^ε1-[2-[2-[2-[[(4S)-4-carboxy-4-(19-carboxynonadecanoylamino)butanoyl]amino]ethoxy]ethoxy]acetyl]-[Arg17,Pro21,Pro27,Pro31,His35]-h-amylin (peptide)
peptide: K([AEEA-γGlu-C20 diacid])CNTATCATQRLANFLRHSSPNFGAIPSSTPVGSHTY-NH2
modifications: disulfide 2-7; N-terminus assumed
SMILES: CC[C@H](C)[C@H](NC(=O)[C@H](C)NC(=O)CNC(=O)[C@H](Cc1ccccc1)NC(=O)[C@H](CC(N)=O)NC(=O)[C@@H]1CCCN1C(=O)[C@H](CO)NC(=O)[C@H](CO)NC(=O)[C@H](Cc1c[nH]cn1)NC(=O)[C@H](CCCNC(=N)N)NC(=O)[C@H](CC(C)C)NC(=O)[C@H](Cc1ccccc1)NC(=O)[C@H](CC(N)=O)NC(=O)[C@H](C)NC(=O)[C@H](CC(C)C)NC(=O)[C@H](CCCNC(=N)N)NC(=O)[C@H](CCC(N)=O)NC(=O)[C@@H](NC(=O)[C@H](C)NC(=O)[C@@H]1CSSC[C@H](NC(=O)[C@@H](N)CCCCNC(=O)COCCOCCNC(=O)CC[C@H](NC(=O)CCCCCCCCCCCCCCCCCCC(=O)O)C(=O)O)C(=O)N[C@@H](CC(N)=O)C(=O)N[C@@H]([C@@H](C)O)C(=O)N[C@@H](C)C(=O)N[C@@H]([C@@H](C)O)C(=O)N1)[C@@H](C)O)C(=O)N1CCC[C@H]1C(=O)N[C@@H](CO)C(=O)N[C@@H](CO)C(=O)N[C@H](C(=O)N1CCC[C@H]1C(=O)N[C@H](C(=O)NCC(=O)N[C@@H](CO)C(=O)N[C@@H](Cc1c[nH]cn1)C(=O)N[C@H](C(=O)N[C@@H](Cc1ccc(O)cc1)C(N)=O)[C@@H](C)O)C(C)C)[C@@H](C)O
notes: Analogue of human amylin; also called compound 57
B5: N^ε1-[2-[2-[2-[[(4S)-4-carboxy-4-(19-carboxynonadecanoylamino)butanoyl]amino]ethoxy]ethoxy]acetyl]-[Arg17,Pro21,Pro27,Pro34,His35]-h-amylin (peptide)
peptide: K([AEEA-γGlu-C20 diacid])CNTATCATQRLANFLRHSSPNFGAIPSSTNVGPHTY-NH2
modifications: disulfide 2-7; N-terminus assumed
SMILES: CC[C@H](C)[C@H](NC(=O)[C@H](C)NC(=O)CNC(=O)[C@H](Cc1ccccc1)NC(=O)[C@H](CC(N)=O)NC(=O)[C@@H]1CCCN1C(=O)[C@H](CO)NC(=O)[C@H](CO)NC(=O)[C@H](Cc1c[nH]cn1)NC(=O)[C@H](CCCNC(=N)N)NC(=O)[C@H](CC(C)C)NC(=O)[C@H](Cc1ccccc1)NC(=O)[C@H](CC(N)=O)NC(=O)[C@H](C)NC(=O)[C@H](CC(C)C)NC(=O)[C@H](CCCNC(=N)N)NC(=O)[C@H](CCC(N)=O)NC(=O)[C@@H](NC(=O)[C@H](C)NC(=O)[C@@H]1CSSC[C@H](NC(=O)[C@@H](N)CCCCNC(=O)COCCOCCNC(=O)CC[C@H](NC(=O)CCCCCCCCCCCCCCCCCCC(=O)O)C(=O)O)C(=O)N[C@@H](CC(N)=O)C(=O)N[C@@H]([C@@H](C)O)C(=O)N[C@@H](C)C(=O)N[C@@H]([C@@H](C)O)C(=O)N1)[C@@H](C)O)C(=O)N1CCC[C@H]1C(=O)N[C@@H](CO)C(=O)N[C@@H](CO)C(=O)N[C@H](C(=O)N[C@@H](CC(N)=O)C(=O)N[C@H](C(=O)NCC(=O)N1CCC[C@H]1C(=O)N[C@@H](Cc1c[nH]cn1)C(=O)N[C@H](C(=O)N[C@@H](Cc1ccc(O)cc1)C(N)=O)[C@@H](C)O)C(C)C)[C@@H](C)O
notes: Analogue of human amylin; also called compound 58

Each binder was assayed against T1, rat calcitonin receptor (assay: SPA competition vs 125I-calcitonin, membranes of BHK cells with rat calcitonin receptor (Assay VIII)).
An IC50 of 5.26 nM was found for B1 in this work.
An IC50 of 477 nM was found for B2 in this work.
An IC50 of 44.8 nM was found for B3 in this work.
An IC50 of 24.4 nM was found for B4 in this work.
An IC50 of 10.3 nM was found for B5 in this work.

Each binder was assayed against T1, rat calcitonin receptor (assay: ratio of binding IC50s: rat calcitonin receptor / rat amylin receptor (reference)).
For B1, the “Ratio rCT/rAmylin binding” value was 131.
B2 was tested, and the “Ratio rCT/rAmylin binding” value was 94.3.
With B3 the “Ratio rCT/rAmylin binding” value was 162.
For B4, the “Ratio rCT/rAmylin binding” value was 135.
For B5, the “Ratio rCT/rAmylin binding” value was 76.6.

The binders below were run against T2, rat amylin receptor (rat calcitonin …) (assay: SPA competition vs 125I-rat amylin, membranes of BHK cells with rat calcitonin receptor + rat RAMP3 (Assay VI)).
An IC50 of 0.04 nM was found for B1 in this work.
An IC50 of 5.05 nM was found for B2 in this work.
An IC50 of 0.276 nM was found for B3 in this work.
An IC50 of 0.181 nM was found for B4 in this work.
An IC50 of 0.135 nM was found for B5 in this work.

The binders below were run against T3, human calcitonin receptor (assay: ratio of binding IC50s: human calcitonin receptor / human amylin receptor (reference)).
How it was run: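 Competition binding by SPA with cell membranes (35 ng/μL) and SPA beads in 50 mM Hepes pH 7.4 with 1 mM CaCl2, 5 mM MgCl2, 0.1% OA and 0.02% Tween20. Incubated 120 min at 25 °C with shaking, then counted.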
B1 was tested, and the “Ratio hCT/hAmylin binding” value was 42.6.
B2 was tested, and the “Ratio hCT/hAmylin binding” value was 120.
For B3, the “Ratio hCT/hAmylin binding” value was 32.
B4 was tested, and the “Ratio hCT/hAmylin binding” value was 133.
With B5 the “Ratio hCT/hAmylin binding” value was 109.
